According to publication PMC3352945 (The Journal of Cell Biology, 2012):

Tests used:
cpTatC [1] = target: T1, cpTatC (pea (endogenous in pea thylakoids)); assay: co-IP
cpTatC [2] = target: T1, cpTatC; assay: radioligand binding

B1: tOE17 V-20F precursor protein (natural protein)
chain: MASAEGDAVAQAGRRAFIGLVATGIVGGALSQAARAETVKTIKIGAPPPPSGGLPGTLNSDQARDFDLPLKERFYLQPLPPAEAAARVKTSAQDIINLKPLIDKKAWPYVQNDLRLRASYLRYDLKTVIASKPKEEKKSLKELTGKLFSTIDDLDHAAKIKSTPEAEKYFAATKDALGDVLAKLG
modifications: [3H]-Leu radiolabel (unlabeled tOE17 used as the chase in the dissociation test)
In the case of B1, the “stoichiometry N” value (cpTatC [1]) is reported as 0.79 tOE17 per cpTatC, the Kd (cpTatC [2]) is reported as 1.07 nM and the “stoichiometry N” value (cpTatC [2]) is reported as 1.27 tOE17 per cpTatC.
